What was measured:
[1] = tested on: Survivin mRNA in A549 cells; assay: qPCR of Wnt pathway target genes in A549 cells; assay type: cell-based, human; details: 10 μg/ml, 24 hr; Mock control set at 1
Protocol: (§1) After 24 hr of treatment, cellular total mRNA was isolated using TRIZOL Reagent and cDNA was synthesized and further subjected to qPCR, using specific primers of four (4) Wnt signaling downstream genes, Axin2, CD24, Survivin and ID2. Experiments were conducted in triplicate and normalized with the Mock group.
(§2) Total mRNA was isolated using TRIZOL Reagent (Invitrogen, Carlsbad, Calif.) according to the manufacturer's instructions. Complementary DNA (cDNA) was synthesized using a RT-PCR Kit (Cat #: FSQ-101, TOYOBO, Japan) according to the manufacturer's instructions and then subjected to qPCR with a SYBR Green PCR kit (Cat #: QPK-201, TOYOBO, Japan). The primers of the four Wnt pathway target genes were as follows: Axin2 sense primer: 5′-[…]-3′ (SEQ ID NO:8) and antisense primer: 5′-[…]-3′ (SEQ ID NO: 9); CD24 sense primer: 5′-[…]-3′ (SEQ ID NO: 10) andantisense primer: 5′-[…]-3′ (SEQ ID NO: 11); Survivin sense primer: 5′-[…]-3′ (SEQ ID NO: 12) and antisense primer: 5′-[…]-3′ (SEQ ID NO: 13) and ID2 sense primer: 5′-[…]-3′ (SEQ ID NO: 14) and antisense primer: 5′-[…]-3′ (SEQ ID NO: 15).
(§3) The amplification protocol consisted of incubations at 95° C. for 1 minute, 40 cycles (95° C. for 15 seconds, 60° C. for 15 seconds, 72° C. for 30 seconds). Incorporation of the SYBR Green dye into PCR products was monitored in real time with a Bio-Rad Detection System and subsequently analyzed using Bio-Rad CFX manager 2.1 software. The samples were pooled for each condition and run in duplicate. Treated samples were compared to Mock using the 2^−ΔΔCt method and plotted as fold change. GAPDH was used as the normalization control.

[2] = tested on: Axin2 mRNA in A549 cells; assay: qPCR of Wnt pathway target genes in A549 cells; assay type: cell-based, human; details: 10 μg/ml, 24 hr; Mock control set at 1
Protocol: as §1, §2, §3

[3] = tested on: ID2 mRNA in A549 cells; assay: qPCR of Wnt pathway target genes in A549 cells; assay type: cell-based, human; details: 10 μg/ml, 24 hr; Mock control set at 1
Protocol: as §1, §2, §3

[4] = tested on: CD24 mRNA in A549 cells; assay: qPCR of Wnt pathway target genes in A549 cells; assay type: cell-based, human; details: 10 μg/ml, 24 hr; Mock control set at 1
Protocol: as §1, §2, §3

[5] = tested on: A549 tumor cells; assay: Cell viability over 1-6 days, MTT assay; assay type: cell-based, human; details: 10 μg/ml
Protocol: The cell survival rate was evaluated in a standard MTT assay (3-(4,5-dimethylthiazol-2-yl)-2,5-diphenyltetrazolium bromide assay, Sigma, St. Louis, Mo.). For the assay, about 20 μl MTT (at […]) was added to each well. The cells were incubated at 37° C. for 4 hr. After that, the supernatant of each well was drawn off carefully and then an equal volume (150 microliter) of dimethyl sulfoxide (DMSO) was added to each well and mixed thoroughly on a shaker for 15 min. The absorbance from the plates was read at 595 nm with a Thermo Scientific Microplate Reader (Thermo Fisher Scientific Inc., Lowell, Mass.). The relative cell viability was calculated as follows: Cell viability=(Treated group(OD595) minus blank(OD595))/(Control group(OD595) minus blank(OD595))×100%.

[6] = Tolerability and body weight of tumor-bearing mice, Example 2; assay type: in vivo, BALB/cA nu/nu mice
Protocol: (§4) Animals were assigned to treatment groups randomly. Initially, all animals were placed in one large animal cage. For assignment to the study, they were later separately housed, with 6 animals per cage per treatment group. Groups 1 and 2 are Control groups in which the animals were each administered the vehicle every other day after the first treatment. […] The animals in Groups 4, 5 and 6 were each given rSIFN-co every other day after the first treatment at 0.15 mg/mouse (Group 4) or 0.10 mg/mouse (Group 5) or 0.05 mg/mouse (Group 6), respectively. Tumor growth was monitored by measuring the length and width of each tumor twice a week during the course of the study. Each animal was also weighed twice a week during the course of the study.
The study was conducted as in Example 1 except as specifically indicated otherwise. Human cervical cancer xenografts were first established and prepared in a similar manner as in Example 1, by inoculating 5×10^6 Hela cells subcutaneously in nude mice and passaging the well-grown xenografts twice in nude mice. Then 1.5 mm^3 fragments were prepared for s.c. implantation into the animals. The body weight of the animals averaged 19±2 g at dose initiation In contrast to Example 1, the animals used were all female.

[7] = tested on: SW620 tumor cells; assay: Cell viability over 1-6 days, MTT assay; assay type: cell-based, human; details: 10 μg/ml
Protocol: The cell survival rate was evaluated in a standard MTT assay (3-(4,5-dimethylthiazol-2-yl)-2,5-diphenyltetrazolium bromide assay, Sigma, St. Louis, Mo.). For the assay, about 20 μl MTT (at 4 mcg/ml) was added to each well. The cells were incubated at 37° C. for 4 hr. After that, the supernatant of each well was drawn off carefully and then an equal volume (150 microliter) of dimethyl sulfoxide (DMSO) was added to each well and mixed thoroughly on a shaker for 15 min. The absorbance from the plates was read at 595 nm with a Thermo Scientific Microplate Reader (Thermo Fisher Scientific Inc., Lowell, Mass.). The relative cell viability was calculated as follows: Cell viability=(Treated group(OD595) minus blank(OD595))/(Control group(OD595) minus blank(OD595))×100%.

[8] = tested on: Human Cervical Cancer Hela Xenografts; assay: Human cervical cancer Hela xenografts in nude mice (Example 2); assay type: in vivo; details: for TV (mm^3, mean ± SD) (D0): day 0, start of treatment; for TV (mm^3, mean ± SD) (D28): day 28
Protocol: (§5) Before commencement of this study, the xenografts were passaged twice in nude mice. Under sterile conditions, well-grown tumors were cut into 1.5 mm^3 fragments and one such fragment was injected by trocar needle into the right flank of each study animal. […] Individual tumor size (length and width) was measured twice per week with microcalipers. Tumor volume (V) was calculated using the formula: V=(length×width^2)/2. Individual relative tumor volume (RTV) was calculated using the formula: RTV=Vt/V0, where Vt is the tumor volume on the day of measurement and V0 is the tumor volume on the day of first treatment. Therapeutic effect of the test article or control article was expressed in terms of TIC (%), using the formula: TIC (%) (mean RTV of the treated group/mean RTV of the control group)×100%; and in terms of % Inhibition, using the formula: % Inhibition=100%−T/C %.
Then 1.5 mm^3 fragments were prepared for s.c. implantation into the animals.

[9] = Tolerability and body weight of tumor-bearing mice, Example 3; assay type: in vivo; details: 0.05-0.15 mg/mouse i.t. every other day, 28 days
Protocol: as §4
This study was conducted as in Example 1, except as specifically indicated otherwise. Human colon cancer xenografts were first established and prepared in a similar manner as in Example 1, by inoculating 5×10^6 HT-29 cells subcutaneously into nude mice and passaging the well-grown xenografts twice in nude mice. Then, 1.5 mm^3 fragments were prepared for s.c. implantation into the test animals. The body weight of the animals averaged 20±2 g at dose initiation In contrast to Example 1, the animals used in this study were all female. […]

[10] = tested on: Human Colon Cancer HT-29 Xenografts; assay: Human colon cancer HT-29 xenografts in nude mice (Example 3); assay type: in vivo; details: for TV (mm^3, mean ± SD) (D0): day 0, start of treatment; for TV (mm^3, mean ± SD) (D28): day 28
Protocol: as §5
Then, 1.5 mm^3 fragments were prepared for s.c. implantation into the test animals.

[11] = 0.05 mg/mouse i.t. every other day
[12] = 0.10 mg/mouse i.t. every other day
[13] = 0.15 mg/mouse i.t. every other day

B1: rSIFN-co: Recombinant super-compound interferon; amino acid sequence SEQ ID NO: 1 (same as interferon alfacon-1), encoded by SEQ ID NO: 2, novel tertiary structure (protein)
chain: MCDLPQTHSLGNRRALILLAQMRRISPFSCLKDRHDFGFPQEEFDGNQFQKAQAISVLHEMIQQTFNLFSTKDSSAAWDESLLEKFYTELYQQLNDLEACVIQEVGVEETPLMNVDSILAVKKYFQRITLYLTEKKYSPCAWEVVRAEIMRSFSLSTNLQERLRRKE
modifications: Amino acid sequence of recombinant interferon
[1]
  relative expression level of Survivin mRNA: about 0.4
[2]
  relative expression level of Axin2 mRNA: about 0.4
[3]
  relative expression level of ID2 mRNA: about 0.4
[4]
  relative expression level of CD24 mRNA: about 0.4
[5]
  cell viability, time dependent effect: apparent for A549 cells for only about the first 3 days of treatment
[6]; 0.05-0.15 mg/mouse i.t. every other day, 28 days
  tolerability: signs of toxicity: no signs of toxicity
[6]; 28-day treatment period
  change in average body weight: Very little change
[7]
  cell viability, time dependent effect: strongly decreased cell viability of SW620 cells in a time-dependent manner
[8]; [11]
  TV (mm^3, mean ± SD) (D0): 135 ± 26 mm^3
  TV (mm^3, mean ± SD) (D28): 886 ± 232 mm^3
[8]; [12]
  TV (mm^3, mean ± SD) (D0): 135 ± 28 mm^3
  TV (mm^3, mean ± SD) (D28): 865 ± 186 mm^3
[8]; [13]
  TV (mm^3, mean ± SD) (D0): 136 ± 25 mm^3
  TV (mm^3, mean ± SD) (D28): 1025 ± 400 mm^3
[9]
  tolerability: signs of drug toxicity and changes in weight: no signs of drug toxicity and minimal changes in weight
[10]; [11]
  TV (mm^3, mean ± SD) (D0): 130 ± 26 mm^3
  TV (mm^3, mean ± SD) (D28): 416 ± 166 mm^3
[10]; [12]
  TV (mm^3, mean ± SD) (D0): 128 ± 39 mm^3
  TV (mm^3, mean ± SD) (D28): 541 ± 196 mm^3
[10]; [13]
  TV (mm^3, mean ± SD) (D0): 131 ± 36 mm^3
  TV (mm^3, mean ± SD) (D28): 570 ± 144 mm^3
